B1: LJI_491-27 (1C3) (antibody, V domains shown)
VH: QVQLLESGGGLVQPGRSLRLSCAASGFTFDDYAMHWVRQPPGKGLEWVSGSSWNSGSVVYADSVKGRFTISRDSAKNSLHLQMNSLRVEDTALYYCAKAVDPTRGSYSPDYGFDIWGQGTMVTVS
VL: not shown
B2: LJI_491-39 (2E6) (antibody, V domains shown)
VH: EVQLVQSGGGLVQPGGSLKLSCAASGFTFSGSAMHWVRQASGKGLEWVGHIRSKANSYATAYAASKGRFTISRDDSKNTAYLQMNSLKTEDTAVYYCTREDIVGVPVAKDWFDPWGQGTLVTVS
VL: DIQMTQSPSSLFASVGDRVTITCRASQSISSYLNWYQQKPGKAPKLLIYAASSLQSGVPSRFSGSGFGTDFTLTISSLQPEDFATYYCQQSYSTLSITFGQGTRLEIKR

Legend:
Assay in all cases: cell-based or functional assay
[1] = target: rVSV-G614 spike (SARS-CoV-2, UniProt P0DTC2 14-1252)
[2] = target: rVSV-Delta spike (SARS-CoV-2 Delta, UniProt P0DTC2 14-1252)
[3] = target: rVSV-Omicron spike (SARS-CoV-2 Omicron, UniProt P0DTC2 14-1252)

Binder	IC50 (ng/mL), neutralization of rVSV-G614 pseudovirions on Vero cells [1] [ng/mL]	IC50 (ng/mL), neutralization of rVSV-Delta pseudovirions on Vero cells [2] [ng/mL]	IC50 (ng/mL), neutralization of rVSV-Omicron pseudovirions on Vero cells [3] [ng/mL]
B1	8	12	3
B2	15	324	88

From patent publication US20250382353A1 (LA JOLLA INSTITUTE FOR IMMUNOLOGY, published 2025)
